Test results as given in patent publication US8491890.

Biological target: Fas (CD95, APO-1) on mouse microglia (mouse) (UniProt P25446)
Assay: cell-based or functional assay

UniProt P25446, sequence (P25446 22-327): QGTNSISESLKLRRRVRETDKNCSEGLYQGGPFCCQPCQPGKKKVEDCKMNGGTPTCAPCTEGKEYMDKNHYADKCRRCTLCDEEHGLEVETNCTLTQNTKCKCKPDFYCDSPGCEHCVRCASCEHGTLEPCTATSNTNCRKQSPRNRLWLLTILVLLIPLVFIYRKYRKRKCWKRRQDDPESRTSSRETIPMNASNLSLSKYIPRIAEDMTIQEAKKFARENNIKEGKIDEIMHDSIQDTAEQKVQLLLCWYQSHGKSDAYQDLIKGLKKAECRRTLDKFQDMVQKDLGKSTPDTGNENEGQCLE

decrease of CB expression in Teff-treated cultures on blocking of FasL interactions (flow cytometry): 4.8%
decrease of CB protein expression in Treg-treated microglia on neutralization of FasL (flow cytometry): 40.2%
Substance: Fas ligand (FasL) on mouse Treg and Teff (from UniProt P41047 1-279)
